Results: patent publication US20100158922A1 (NOVIMMUNE S A, published 2010)

Experiments:
recombinant human IFNγ [1] = molecular target: T1, recombinant human IFNγ (human, UniProt P01579 24-166, limits assumed); assay: cell-based or functional assay
T1 sequence (looked up): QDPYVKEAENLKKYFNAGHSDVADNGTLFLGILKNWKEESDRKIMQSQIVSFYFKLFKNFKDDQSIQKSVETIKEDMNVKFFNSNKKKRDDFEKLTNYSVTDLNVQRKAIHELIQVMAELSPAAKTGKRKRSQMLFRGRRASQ

native cynomolgus IFNγ = molecular target: T2, native cynomolgus IFNγ (cynomolgus monkey, UniProt P63309 24-165, limits assumed); assay: Binding, cross-reactivity table (Sandwich ELISA)
T2 construct: Native protein in a culture supernatant; also called ncyIFNγ
T2 sequence (looked up): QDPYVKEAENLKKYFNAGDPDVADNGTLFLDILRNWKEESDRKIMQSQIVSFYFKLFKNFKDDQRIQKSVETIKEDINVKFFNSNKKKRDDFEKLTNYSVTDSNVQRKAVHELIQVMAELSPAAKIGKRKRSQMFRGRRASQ

native human IFNγ = molecular target: T3, native human IFNγ (human, UniProt P01579 24-161, limits assumed); assay: Binding, cross-reactivity table (Sandwich ELISA)
T3 construct: Native protein in a culture supernatant; also called nhuIFNγ
T3 sequence (looked up): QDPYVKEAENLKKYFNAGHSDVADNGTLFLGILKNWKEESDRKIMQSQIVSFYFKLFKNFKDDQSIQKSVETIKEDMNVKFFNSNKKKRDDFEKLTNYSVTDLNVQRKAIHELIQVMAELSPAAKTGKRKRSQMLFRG

[2] = molecular target: T4, recombinant cynomolgus IFNγ (cynomolgus monkey, UniProt P63309 24-165); assay: Binding, cross-reactivity table (Sandwich ELISA)
T4 construct: also called rcyIFNγ
T4 sequence (looked up): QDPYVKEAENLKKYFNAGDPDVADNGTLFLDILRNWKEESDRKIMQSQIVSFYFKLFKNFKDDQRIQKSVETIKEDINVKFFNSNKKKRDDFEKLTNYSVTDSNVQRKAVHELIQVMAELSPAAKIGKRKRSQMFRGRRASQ

recombinant human IFNγ [3] = molecular target: T1, recombinant human IFNγ; assay: Binding, cross-reactivity table (Sandwich ELISA)
recombinant cat IFNγ = molecular target: T5, recombinant cat IFNγ (cat, UniProt P46402 24-167); assay: Sandwich ELISA, IFNγ captured with pre-coated NI-0501
T5 construct: also called rcIFNγ
T5 sequence (looked up): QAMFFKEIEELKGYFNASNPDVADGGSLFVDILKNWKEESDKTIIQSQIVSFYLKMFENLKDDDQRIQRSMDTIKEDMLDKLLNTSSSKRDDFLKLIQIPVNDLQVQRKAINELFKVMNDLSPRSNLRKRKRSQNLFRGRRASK
Excerpt: (§1) The IFNγ from each species was detected using a polyclonal antibody specific for the IFNγ in that assay.

recombinant dog IFNγ = molecular target: T6, recombinant dog IFNγ (dog, UniProt P42161 24-166); assay: as above
T6 construct: also called rdIFNγ
T6 sequence (looked up): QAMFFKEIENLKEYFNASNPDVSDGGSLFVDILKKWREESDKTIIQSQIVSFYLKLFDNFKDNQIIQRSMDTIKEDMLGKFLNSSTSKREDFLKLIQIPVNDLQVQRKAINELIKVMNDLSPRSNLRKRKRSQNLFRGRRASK
Excerpt: as §1

B1: AD1.3R3P6_F9 IgG (antibody, V domains shown)
VH: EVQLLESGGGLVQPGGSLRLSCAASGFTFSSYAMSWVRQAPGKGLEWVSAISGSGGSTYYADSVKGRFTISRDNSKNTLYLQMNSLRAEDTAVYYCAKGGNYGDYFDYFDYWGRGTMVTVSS
VL: NFMLTQPHSVSESPGKTVTISCTRSSGSIASNYVQWYQQRPGSAPTIVIYEDNQRPSGVPHRFSGSIDSSSNSASLTISGLKTEDEADYYCQSYEGFGGGTKLTVLG
Recombinant human IFNγ [1]
  MHC II Inhibition Cell-Based Assay IC50: 0.185 nM

B2: AD1.4R4P2_G7 IgG (antibody, V domains shown)
VH: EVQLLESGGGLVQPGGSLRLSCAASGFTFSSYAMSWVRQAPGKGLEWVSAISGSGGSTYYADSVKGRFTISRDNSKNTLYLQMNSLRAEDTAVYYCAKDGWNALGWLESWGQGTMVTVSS
VL: NFMLTQPHAVSESPGKTVTISCTGRNGNIASNYVQWYQQRPDSAPTLIIFEDTQRPSGVPTRLSGSIDTSSNSASLIISSLRTEDEADYYCQSSDSNRVLFGGGTKVTVLG
Recombinant human IFNγ [1]
  MHC II Inhibition Cell-Based Assay IC50: 0.233 nM

B3: AD1.4R4P1_B9 IgG (antibody, V domains shown)
VH: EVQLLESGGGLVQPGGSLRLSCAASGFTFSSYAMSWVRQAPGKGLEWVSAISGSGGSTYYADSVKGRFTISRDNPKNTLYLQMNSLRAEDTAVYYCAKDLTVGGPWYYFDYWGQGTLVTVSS
VL: NFMLTQPHSVSESPGKTVTISCTRSSGSIVSNYVQWYQQRPGSAPTTVIFDDDQRPSGVPGRFSGSLDSSSNSASLTISGLQTEDEADYYCQSYDSSNVVFGGGTKVTVLG
Recombinant human IFNγ [1]
  MHC II Inhibition Cell-Based Assay IC50: 0.322 nM

B4: AC1.2R3P2_A6 IgG (antibody, V domains shown)
VH: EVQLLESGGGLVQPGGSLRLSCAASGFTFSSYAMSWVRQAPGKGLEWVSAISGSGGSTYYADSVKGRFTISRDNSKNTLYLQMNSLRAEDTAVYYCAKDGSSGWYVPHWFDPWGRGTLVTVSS
VL: NFMLTQPHSVSESPGKTVTISCTRSSGSIVSNYVQWYQQRPGSAPTTVIYEDNRRPSGVPDRFSGSIDSSSNTASLTISGLEAEDEADYYCQSYDGSNRWMFGGGTKLTVLG
Recombinant human IFNγ [1]
  MHC II Inhibition Cell-Based Assay IC50: 0.041 nM

B5: AC1.2R2P2_D8 IgG (antibody, V domains shown)
VH: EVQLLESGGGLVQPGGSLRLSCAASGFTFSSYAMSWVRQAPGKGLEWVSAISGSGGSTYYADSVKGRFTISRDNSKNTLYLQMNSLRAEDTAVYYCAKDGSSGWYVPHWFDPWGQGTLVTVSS
VL: NFMLTQPHSVSESPGKTVTISCTRSSGSIVSNYVQWYQQRPGSSPTTVIYEDNQRPSGVPDRFSGSIDSSSNSASLTISGLKTEDEADYYCQSYDSNNFWVFGGGTKLTVLG
Recombinant human IFNγ [1]
  MHC II Inhibition Cell-Based Assay IC50: 0.708 nM

B6: AD1.3R3P5_F8 IgG (antibody, V domains shown)
VH: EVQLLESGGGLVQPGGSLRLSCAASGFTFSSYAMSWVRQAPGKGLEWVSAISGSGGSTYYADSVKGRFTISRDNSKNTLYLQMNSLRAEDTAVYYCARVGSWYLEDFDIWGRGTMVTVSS
VL: NFMLTQPHSVSESPGKTVTISCTRSSGSIASNYVHWYQQRPGSSPTTVIYEDNRRPSGVPARFSGSIDSSSNSASLTISGLETDDEADYYCQSSDTTYHGGVVFGGGTKLTVLG
Recombinant human IFNγ [1]
  MHC II Inhibition Cell-Based Assay IC50: 1.53 nM

B7: NI-0501 (antibody, V domains shown)
VH: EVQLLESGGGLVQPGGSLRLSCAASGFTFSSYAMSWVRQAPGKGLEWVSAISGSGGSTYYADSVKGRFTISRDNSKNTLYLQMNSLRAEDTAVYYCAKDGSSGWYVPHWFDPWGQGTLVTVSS
VL: NFMLTQPHSVSESPGKTVTISCTRSSGSIASNYVQWYQQRPGSSPTTVIYEDNQRPSGVPDRFSGSIDSSSNSASLTISGLKTEDEADYYCQSYDGSNRWMFGGGTKLTVL
notes: It is the back-mutated version of A6; also called A6 back-mutated to germline; back-mutated A6
Native cynomolgus IFNγ
  binding result: binds
Native human IFNγ
  binding result: binds
[2]
  binding result: binds
Recombinant human IFNγ [3]
  binding result: binds
Recombinant cat IFNγ
  binding result: no binding
Recombinant dog IFNγ
  binding result: no binding

B8: AC1.4R4P2_C10 IgG (antibody, V domains shown)
VH: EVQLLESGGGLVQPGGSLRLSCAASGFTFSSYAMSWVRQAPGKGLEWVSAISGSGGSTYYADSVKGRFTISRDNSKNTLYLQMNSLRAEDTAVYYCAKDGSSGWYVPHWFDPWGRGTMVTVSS
VL: NFMLTQPHSVSESPGKTVTISCTRSSGTIASNYVQWYQQRPGSSPTTVIYEDNQRPSGVPDRFSGSIDSSSNSASLTISGLKTEDEADYYCQSYDNSNHWVFGGGTKVTVLG
Recombinant human IFNγ [1]
  MHC II Inhibition Cell-Based Assay IC50: 0.203 nM
